Five substances from paper doi:10.1101/714493 can be followed below.

Test in all cases: SEC
The target of experiment [1] is EfBSH E269D (Enterococcus faecalis).
Experiment [2] concerns the target EfBSH E269A (Enterococcus faecalis).
Experiment [3] has as its target EfBSH R207A (Enterococcus faecalis).
Experiment [4] has as its target EfBSH E269Q (Enterococcus faecalis).
The target in experiment [5] is Bile Salt Hydrolase from Enterococcus faecalis, wild type (Enterococcus faecalis).

Broadly, the stoichiometry N is a count of units in the complex or per binding partner. For the substance EfBSH E269D (enzyme), in experiment [1], the stoichiometry N amounted to 4. In turn, EfBSH E269A (enzyme) came in with a stoichiometry N in experiment [2] of 4.

As for EfBSH R207A (enzyme), the stoichiometry N in experiment [3] was 4. In experiment [4], EfBSH E269Q (enzyme) had a stoichiometry N of 4.

With “Bile Salt Hydrolase from Enterococcus faecalis, wild type (enzyme)”, the stoichiometry N in experiment [5] came to 4.
